Data published in patent US20090280543A1, “REGIOSELECTIVE GLYCOSYLATION” (THE UNIVERSITY OF YORK, priority 2005, published 2009).

Tests used:
[1] = tested on: E. coli transformed with pGEX-2T vector; assay: Hydrolysis of esculin in bacterial culture, RP-HPLC; conditions: 44 h at 25° C.
Experimental: (§1) FIG. 5: Investigation of ecsulin hydrolysis. Neither a) autohydrolysis in MES buffer nor b) hydrolysis in bacterial culture of esculin (12) was detected. Samples at 24 h, 44 h incubation and additionally a standard of the aglycone esculetin (11) are illustrated;
(§2) For these controls, samples were incubated for 44 h at 25° C. as in the standard experimental conditions, and analyzed by RP-HPLC to confirm the lack of aglycone (esculetin, 11) (FIG. S1).

[2] = Autohydrolysis of esculin in MES buffer, RP-HPLC; assay type: physicochemical; conditions: 50 mM MES buffer (pH 7.0), 44 h at 25° C.
Experimental: as §1, §2

[3] = D-glucose adsorption by PVPP, HPAEC of samples treated with and without PVPP; assay type: physicochemical
Experimental: FIG. 8: Lack of D-glucose adsorption by PVPP.
High Performance Anion Exchange Chromatography (HPAEC): HPAEC coupled with integrated amperometric detection (IAD) (Dionex, U.K.) was used to detect D-glucose using a CarboPac™ PA10 column (2×250 mm, Dionex). Seven different monosaccharides including L-Fucose, L-rhamnose, D-galactose, L-arabinose, D-glucose, D-manose and D-xylose were used as references. The D-glucose was separated isocratically at a flow rate 0.35 mL/min with 24 mM NaOH (pH>12.5) over 18 min. The column was then washed with a linear gradient of NaOH from 24 mM to 200 mM over 5 min. The IAD waveform was set following manufacturer's recommendation.
Stage 3, detection: 50 μl of the reaction mix were transferred to a 96-well filtration plate (Abgene, U.K.), mixed with an equal volume of PVPP aqueous suspension (25 g/L), shaken for 1 h at 25° C. before centrifugation (1000 g, 5 min). To each filtrate, 50 mM 2-morpholino-ethanesulfonic acid buffer (MES) (pH 7.0), ABTS™ (0.1 mM), peroxidase (2 U) and glucose oxidase (2 U) were added to a final volume of 125 μl. The formation of the green dye was monitored at 405 nm at 30 min using a plate reader (Bio-Tec Instruments Inc., U.S.A).

[4] = Whole-cell biocatalysis screen of GT library against the aglycone daidzein (RP-HPLC of glucosides); assay type: cell-based, E. coli; conditions: for regioselectivity for the 7-OH of daidzein: percentage of a regiospecific glucoside in the total amount of monoglucosides formed
From the text: FIG. 3: Screening of a GT-library against the aglycone daidzein. a) The readings at A405 nm for D-glucose detection are presented in a colored code format. b) Examples of RP-HPLC trace of active and non-active GTs in whole-cell biocatalysis are illustrated. c) The regioselectivity of the active GTs towards daidzein, defined by the percentage of a regiospecific glucoside in the total amount of monoglucosides formed;
Reverse-phase HPLC (RP-HPLC): RP-HPLC (Agilent 1100 system with Photodiode Array Detector, Agilent, U.K.) analysis was carried out using a Columbus 5-μ C18 column (150×3.20 mm, Phenomenex, U.K.). Glucosides were separated from their respective aglycones using a linear gradient of acetonitrile/0.1% formic acid (v/v) in H2O: 10-45% (trans-resveratrol/glucosides), 10-50% (daidzein/glucosides) at 0.5 mL/min over 20 min and monitored at 280 nm and 250 nm. Separation of scopoletin/scopolin and esculetin/esculin was carried out using the conditions described previously.^[11]
The cDNA library of 96 Arabidopsis thaliana GTs was subcloned into the multiple cloning site of the glutathione-S-transferase (GST) gene fusion vector pGEX-2T (Amersham Biosciences, U.K.) as described previously^[10] and transformed into the strain E. coli BL21 (DE3) for use in the screening method.
Stage 1, biotransformation: single colonies of the GT library grown on LB-agar plates overnight were transferred to individual wells in a 96-well bacterial culture plate containing 400 μl 2×YT medium (16 g/L bacto tryptone, 10 g/L yeast extract, 5 g/L NaCl) and 50 μg/mL ampicillin. The plate was covered with an adhesive plate seal (Abgene, U.K.) and incubated at 37° C. (250 rpm). The bacterial growth was monitored at 595 nm by a plate reader. After 4 h, the cultures had reached exponential phase. The plate was centrifuged (4000 g, 10 min), the supernatants discarded and cell pellets were resuspended in isopropyl-D-thiogalactopyranoside (0.1 mM), 2-(N-morpholino)ethanesulfonic acid (50 mM, pH 7.0), ampicillin (50 μg/mL), L-arabinose (10 g/L) and 500 µM of aglycone to a total whole-cell reaction volume of 400 μl/well. The 96-well plate was closed with a gas permeable adhesive plate seal, wrapped in alu foil for light protection and incubated at 25° C. (250 rpm). After 44 h the cultures were centrifuged (4000 g, 15 min) and the supernatants analyzed. […]
Stage 3, detection: 50 μl of the reaction mix were transferred to a 96-well filtration plate (Abgene, U.K.), mixed with an equal volume of PVPP aqueous suspension (25 g/L), shaken for 1 h at 25° C. before centrifugation (1000 g, 5 min). […] The formation of the green dye was monitored at 405 nm at 30 min using a plate reader (Bio-Tec Instruments Inc., U.S.A). […]

In the case of `O=c1ccc2cc(O[C@@H]3O[C@H](CO)[C@@H](O)[C@H](O)[C@H]3O)c(O)cc2o1` [esculin, esculetin-6-O-glucoside], the “hydrolysis in the presence of the bacterial culture” value [1] is reported as “not hydrolyzed” and the autohydrolysis during incubation [2] is reported as “lack of autohydrolysis”.

In the case of `O=C[C@H](O)[C@@H](O)[C@H](O)[C@H](O)CO` [D-glucose], the “loss of D-glucose by filtration through PVPP” value [3] is reported as “no significant loss”.

B1: GT 73C4: Arabidopsis thaliana glycosyltransferase, SEQ ID NO: 30 (nucleotide), 121 (amino acid) (protein, listed as Arabidopsis thaliana)
chain: MASEKSHKVHPPLHFILFPFMAQGHMIPMIDIARLLAQRGATVTIVTTRYNAGRFENVLSRAMESGLPINIVHVNFPYQEFGLPEGKENIDSYDSMELMVPFFQAVNMLEDPVMKLMEEMKPRPSCIISDLLLPYTSKIARKFSIPKIVFHGTGCFNLLCMHVLRRNLEILKNLKSDKDYFLVPSFPDRVEFTKPQVPVETTASGDWKAFLDEMVEAEYTSYGVIVNTFQELEPAYVKDYTKARAGKVWSIGPVSLCNKAGADKAERGNQAAIDQDECLQWLDSKEDGSVLYVCLGSICNLPLSQLKELGLGLEKSQRSFIWVIRGWEKYNELYEWMMESGFEERIKERGLLIKGWSPQVLILSHPSVGGFLTHCGWNSTLEGITSGIPLITWPLFGDQFCNQKLVVQVLKAGVSAGVEEVMKWGEEEKIGVLVDKEGVKKAVEELMGASDDAKERRRRVKELGESAHKAVEEGGSSHSNITYLLQDIMQQVKSKN
For B1, the “daidzein glucosides formed / positions glycosylated” value ([4]; whole-cell biocatalysis, 500 µM aglycone, 44 h, 25° C.) was “produced the diglucoside in addition to the monoglucosides”.

B2: GT 73B1: Arabidopsis thaliana glycosyltransferase, SEQ ID NO: 22 (nucleotide), 114 (amino acid) (protein, listed as Arabidopsis thaliana)
chain: MGTPVEVSKLHFLLFPFMAHGHMIPTLDMAKLFATKGAKSTILTTPLNAKLFFEKPIKSFNQDNPGLEDITIQILNFPCTELGLPDGCENTDFIFSTPDLNVGDLSQKFLLAMKYFEEPLEELLVTMRPDCLVGNMFFPWSTKVAEKFGVPRLVFHGTGYFSLCASHCIRLPKNVATSSEPFVIPDLPGDILITEEQVMETEEESVMGRFMKAIRDSERDSFGVLVNSFYELEQAYSDYFKSFVAKRAWHIGPLSLGNRKFEEKAERGKKASIDEHECLKWLDSKKCDSVIYMAFGTMSSFKNEQLIEIAAGLDMSGHDFVWVVNRKGSQEEKEDWLPEGFEEKTKGKGLIIRGWAPQVLILEHKAIGGFLTHCGWNSLLEGVAAGLPMVTWPVGAEQFYNEKLVTQVLKTGVSVGVKKMMQVVGDFISREKVEGAVREVMVGEERRKRAKELAEMAKNAVKEGGSSDLEVDRLMEELTLVKLQKEKV
For B2, the “regioselectivity for the 7-OH of daidzein” value (from here on “regioselectivity”) [4] was 100%.

B3: GT 84A1: Arabidopsis thaliana glycosyltransferase, SEQ ID NO: 81 (nucleotide), 130 (amino acid) (protein, listed as Arabidopsis thaliana)
chain: MVFETCPSPNPIHVMLVSFQGQGHVNPLLRLGKLIASKGLLVTFVTTELWGKKMRQANKIVDGELKPVGSGSIRFEFFDEEWAEDDDRRADFSLYIAHLESVGIREVSKLVRRYEEANEPVSCLINNPFIPWVCHVAEEFNIPCAVLWVQSCACFSAYYHYQDGSVSFPTETEPELDVKLPCVPVLKNDEIPSFLHPSSRFTGFRQAILGQFKNLSKSFCVLIDSFDSLEQEVIDYMSSLCPVKTVGPLFKVARTVTSDVSGDICKSTDKCLEWLDSRPKSSVVYISFGTVAYLKQEQIEEIAHGVLKSGLSFLWVIRPPPHDLKVETHVLPQELKESSAKGKGMIVDWCPQEQVLSHPSVACFVTHCGWNSTMESLSSGVPVVCCPQWGDQVTDAVYLIDVFKTGVRLGRGATEERVVPREEVAEKLLEATVGEKAEELRKNALKWKAEAEAAVAPGGSSDKNFREFVEKLGAGVTKTKDNGY
With B3 the “regioselectivity” value [4] was 100%.

B4: GT 73B2: Arabidopsis thaliana glycosyltransferase, SEQ ID NO: 23 (nucleotide), 115 (amino acid) (protein, listed as Arabidopsis thaliana)
chain: MGSDHHHRKLHVMFFPFMAYGHMIPTLDMAKLFSSRGAKSTILTTSLNSKILQKPIDTFKNLNPGLEIDIQIFNFPCVELGLPEGCENVDFFTSNNNDDKNEMIVKFFFSTRFFKDQLEKLLGTTRPDCLIADMFFPWATEAAGKFNVPRLVFHGTGYFSLCAGYCIGVHKPQKRVASSSEPFVIPELPGNIVITEEQIIDGDGESDMGKFMTEVRESEVKSSGVVLNSFYELEHDYADFYKSCVQKRAWHIGPLSVYNRGFEEKAERGKKANIDEAECLKWLDSKKPNSVIYVSFGSVAFFKNEQLFEIAAGLEASGTSFIWVVRKTKDDREEWLPEGFEERVKGKGMIIRGWAPQVLILDHQATGGFVTHCGWNSLLEGVAAGLPMVTWPVGAEQFYNEKLVTQVLRTGVSVGASKHMKVMMGDFISREKVDKAVREVLAGEAAEERRRRAKKLAAMAKAAVEEGGSSFNDLNSFMEEFSS
With B4 the “regioselectivity” value [4] was 100%.
